Test results as given in paper PMC3575510, “Antibiotic Inducibility of the mexXY Multidrug Efflux Operon of Pseudomonas aeruginosa: Involvement of the MexZ Anti-Repressor ArmZ” (PLoS ONE, 2013).

Molecular target: T1, MexZ (LexA DNA-binding domain fusion encoded by pSF004, pMS604::mexZ) (P. aeruginosa, UniProt G3XCU9 1-210)
T1 construct: also called repressor of mexXY; mexZ product; source: E. coli SU202, bacterial two-hybrid fusion expressed from pSF004 (pMS604::mexZ)
T1 sequence: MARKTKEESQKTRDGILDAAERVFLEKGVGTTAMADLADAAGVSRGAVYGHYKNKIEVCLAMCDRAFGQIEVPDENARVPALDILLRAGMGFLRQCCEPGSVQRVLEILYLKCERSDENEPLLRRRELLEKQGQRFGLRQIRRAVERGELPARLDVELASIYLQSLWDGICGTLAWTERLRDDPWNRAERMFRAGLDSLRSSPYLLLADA
Test: two-hybrid; bacterial LexA-based two-hybrid in E. coli SU202 (pMS604 and pDP804 derivatives); cells grown to mid-log phase in L-broth with 5 mM IPTG; interaction represses lacZ, read as reduced β-galactosidase activity
Conditions: partners not purified

B1: ArmZ (PA5471) wild type (LexA DNA-binding domain fusion encoded by pSF005, pDP804::armZ) (natural protein)
chain: MGNYIKPLSAGVALIASDSTWIEGKAIQQLQTTAELDGMCRVVGLPDLHPGRGYPVGAAFFSVGRFYPALVGNDIGCGMALWETGLALGKLSADKLEKRLGNLDLPLDETWSDCIEALDLPAREHWRALGTIGGGNHFAELQQVETVFDQAALHALGLDADRLQLLVHSGSRGLGQAILQEHVSLHGHAGLLDGSLEASAYLARHADALRFAEGNRQLIARRILERLRCDGLELLDINHNLVVPAQVDGVDGWLHRKGATPADQGVLVIPGSRGDYSYLVEPVPSAQSLFSLAHGAGRKWQRGECRERLAARFSVDQLGRTRLGSRVICGDRQLIYEEAPEAYKGIDSVVGALLEAGLLRLVARLKPVLTYKTRGECCR
notes: also called anti-repressor MexZ; ArmZ (WT); source: E. coli SU202, bacterial two-hybrid fusion expressed from pSF005 (pDP804::armZ)
- fold reduction of β-galactosidase activity (relative to SU202 carrying the mexZ plasmid only): 3 fold
